The experiment has as its target T1, hIL-3 receptor (human, UniProt P26951).
T1 sequence: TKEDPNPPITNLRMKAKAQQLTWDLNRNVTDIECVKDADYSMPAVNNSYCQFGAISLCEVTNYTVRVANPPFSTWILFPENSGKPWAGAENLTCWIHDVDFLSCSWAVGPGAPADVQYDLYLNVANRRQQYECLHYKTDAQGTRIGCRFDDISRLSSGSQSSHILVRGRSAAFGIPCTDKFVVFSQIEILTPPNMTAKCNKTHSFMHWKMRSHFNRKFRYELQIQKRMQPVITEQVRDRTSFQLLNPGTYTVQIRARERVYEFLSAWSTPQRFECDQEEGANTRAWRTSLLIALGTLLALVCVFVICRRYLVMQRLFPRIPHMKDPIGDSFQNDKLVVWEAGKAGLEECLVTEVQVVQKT
The experiment in a line: cell-based or functional assay.

B1: pMON13418 polypeptide (ligand)
chain: MANCSIMIDEIIHHLKRPPNPLLDPNNLNSEDMDILMERNLRTPNLLAFVRAVKHLENASGIEPILSNLQPCVPYWTAPPSRTPITIKAGDWQEFREKLTFYLVTLEQAQEQQ
With B1, the “Relative Biological Activity (AML 193 proliferation)” value (“Relative Biological Activity” below) was 0.5 EC50 (1-133)hIL-3 / EC50 mutant.

B2: pMON13459 polypeptide (ligand)
chain: MANCSIMIDELIHHLKIPPNPSLDSANLNSEDVSILMERNLRTPNLLAFVRAVKHLENASGIEPILSNLQPCVPYWTAPPSRTPITIKAGDWQEFRLKLQFYLSTLEQAQEQQ
As to B2, the “Relative Biological Activity” value is 0.003 EC50 (1-133)hIL-3 / EC50 mutant.

B3: pMON13397 polypeptide (ligand)
chain: MANCSIMIDEIIHHLKRPPAPLLDPNNLNAEDVDILMERNLRLPNLESFVRAVKNLENASGIEAILRNLWPCLPSATAAPSRHPIIIRMGDWQEFREKLTFYLVTLEQAQEQQ
For the molecule B3, the “Relative Biological Activity” value was 16 EC50 (1-133)hIL-3 / EC50 mutant.

B4: pMON13420 polypeptide (ligand)
chain: MANCSIMIDEAIHHLKRPPAPSLDPNNLNDEDVSILMDRNLRLSNLESFVRAVKNLENASGIEAILRNLQPCLPSATAAPSRHPIIIKAGDWQEFREKLTFYLVTLEQAQEQQ
Consider B4, for which the “Relative Biological Activity” value is 19 EC50 (1-133)hIL-3 / EC50 mutant.

B5: pMON13432 polypeptide (ligand)
chain: MANCSIMIDEAIHHLKRPPAPSLDPNNLNDEDMSILMDRNLRLPNLESFVRAVKNLENASGIEAILRNLQPCLPSATAAPSRHPIIIKAGDWQEFREKLTFYLVTLEQAQEQQ
On to B5, for which the “Relative Biological Activity” value is 10 EC50 (1-133)hIL-3 / EC50 mutant.

B6: pMON13415 polypeptide (ligand)
chain: MANCSIIIDEIIHHLKRPPNPLLDPNNLNSEDVDILMERNLRTPNLLAFVRAVKHLENASGIEAILRNLQPCLPSATAAPSRHPIIIKAGDWQEFREKLTFYLVTLEQAQEQQ
As to B6, the “Relative Biological Activity” value was 4 EC50 (1-133)hIL-3 / EC50 mutant.

B7: pMON13407 polypeptide (ligand)
chain: MANCSIMIDEIIHHLKRPPNPLLDPNNLNSEDVDILMERNLRTPNLLAFVRAVKHLENASGIEAILRNLQPCLPSATAAPSRHPIIIKAGDWQEFREKLTFYLVTLEQAQEQQ
As for B7, the “Relative Biological Activity” value is 16 EC50 (1-133)hIL-3 / EC50 mutant.

B8: pMON13405 polypeptide (ligand)
chain: MANCSIAIDEIIHHLKRPPNPLLDPNNLNSEDVDILMERNLRTPNLLAFVRAVKHLENASGIEAILRNLQPCLPSATAAPSRHPIIIKAGDWQEFREKLTFYLVTLEQAQEQQ
Turning to B8, the “Relative Biological Activity” value is 9 EC50 (1-133)hIL-3 / EC50 mutant.

B9: pMON13421 polypeptide (ligand)
chain: MANCSIMIDEAIHHLKRPPAPSLDPNNLNDEDMSILMDRNLRLSNLESFVRAVKNLENASGIEAILRNLQPCLPSATAAPSRHPIIIKAGDWQEFREKLTFYLVTLEQAQEQQ
As to B9, the “Relative Biological Activity” value was 0.5 EC50 (1-133)hIL-3 / EC50 mutant.

B10: pMON13412 polypeptide (ligand)
chain: MANCSIMIDEIIHHLKRPPNPLLDPNNLNSEDMDILMERNLRTPNLLAFVRAVKHLENASGIEAILRNLQPCLPSATAAPSRHPIIIKAGDWQEFRLKLQFYLSTL
Take B10: the “Relative Biological Activity” value was 0.5 EC50 (1-133)hIL-3 / EC50 mutant.

B11: pMON13404 polypeptide (ligand)
chain: MANCSIMIDEIIHHLKRPPAPLLDPNNLNAEDVDILMERNLRLPNLESFVRAVKNLENASGIEAILRNLQPCLPSATAAPSRHPIIIKAGDWQEFREKLQFYLVTLE
As to B11, the “Relative Biological Activity” value was 1.3 EC50 (1-133)hIL-3 / EC50 mutant.

B12: pMON13403 polypeptide (ligand)
chain: MANCSIMIDEIIHHLKRPPNPLLDPNNLNSEDMDILMDSNLRTPNLLAFPHASKQLENASGIEAILRNLQPCLPSATAAPSRHPIIIKAGDWQEFREKLTFYLVTLEQAQEQQ
Regarding B12, the “Relative Biological Activity” value was 0.03 EC50 (1-133)hIL-3 / EC50 mutant.

B13: pMON13413 polypeptide (ligand)
chain: MANCSIMIDEIIHHLKRPPNPLLDPNNLNSEDMDILMERNLRTPNLLAFVRAVKHLENASGIEAILRNLQPCLPSATAAPSRHPIIIKAGDWQEFRLKLQFYLSSLEQAQEQQ
B13: the “Relative Biological Activity” value was 0.6 EC50 (1-133)hIL-3 / EC50 mutant.

B14: pMON13419 polypeptide (ligand)
chain: MANCSIMIDEIIHHLKRPPNPLLDPNNLNSEDMDILMDSNLLTPNLLAFPHASKQLENASGIEAILRNLQPCLPSATAAPSRHPIIIKAGDWQEFRLKLQFYLSSLEQAQEQQ
B14: the “Relative Biological Activity” value is 0.015 EC50 (1-133)hIL-3 / EC50 mutant.

B15: pMON13411 polypeptide (ligand)
chain: MANCSIMIDEIIHHLKRPPNPLLDPNNLNSEDMDILMERNLRTPNLLAFVRAVKHLENASGIEAILRNLQPCLPSATAAPSRHPIIIKAGDWQEFRLKLQFYLSTLEQAQEQQ
As for B15, the “Relative Biological Activity” value was 1.2 EC50 (1-133)hIL-3 / EC50 mutant.

B16: pMON13400 polypeptide (ligand)
chain: MANCSIMPDEAIHHLKIPPNPSLDSANLNSEDVSILMERNLRTPNLLAFVRAVKHLENASGIEAILRNLQPCLPSATAAPSRHPIIIKAGDWQEFREKLTFYLVTLEQAQEQQ
As to B16, the “Relative Biological Activity” value was 0.09 EC50 (1-133)hIL-3 / EC50 mutant.

B17: pMON13424 polypeptide (ligand)
chain: MANCSIAIDEIIHHLKRPPNPLLDPNNLNSEDVDILLERNLRTPNLLAFVRAVKHLENASGIEAILRNLQPCLPSATAAPSRHPIIIKAGDWQEFREKLTFYLVTLEQAQEQQ
On to B17, for which the “Relative Biological Activity” value was 3 EC50 (1-133)hIL-3 / EC50 mutant.

B18: pMON13429 polypeptide (ligand)
chain: MANCSIIIDEIIHHLKRPPNPLLDPNNLNSEDVDILDERNLRTPNLLAFVRAVKHLENASGIEAILRNLQPCLPSATAAPSRHPIIIKAGDWQEFREKLTFYLVTLEQAQEQQ
Turning to B18, the “Relative Biological Activity” value was > 0.0002 EC50 (1-133)hIL-3 / EC50 mutant.

B19: pMON13422 polypeptide (ligand)
chain: MANCSIAIDEIIHHLKRPPNPLLDPNNLNSEDVDILIERNLRTPNLLAFVRAVKHLENASGIEAILRNLQPCLPSATAAPSRHPIIIKAGDWQEFREKLTFYLVTLEQAQEQQ
B19: the “Relative Biological Activity” value is 0.4 EC50 (1-133)hIL-3 / EC50 mutant.

B20: pMON13409 polypeptide (ligand)
chain: MANCSIMIDEIIHHLKRPPNPLLDPNNLNSEDMDILLERNLRTPNLLAFVRAVKHLENASGIEAILRNLQPCLPSATAAPSRHPIIIKAGDWQEFREKLTFYLVTLEQAQEQQ
Take B20: the “Relative Biological Activity” value was 15 EC50 (1-133)hIL-3 / EC50 mutant.

B21: pMON13402 polypeptide (ligand)
chain: MANCSIMIDELIHHLKIPPNPSLDSANLNSEDVSILMERNLRTPNLLAFVRAVKHLENASGIEAILRNLQPCLPSATAAPSRHPIIIKAGDWQEFREKLTFYLVTLEQAQEQQ
As for B21, the “Relative Biological Activity” value is 20 EC50 (1-133)hIL-3 / EC50 mutant.

B22: pMON13406 polypeptide (ligand)
chain: MANCSIAIDEIIHHLKRPPNPLLDPNNLNSEDMDILMERNLRTPNLLAFVRAVKHLENASGIEAILRNLQPCLPSATAAPSRHPIIIKAGDWQEFREKLTFYLVTLEQAQEQQ
On to B22, for which the “Relative Biological Activity” value was 5 EC50 (1-133)hIL-3 / EC50 mutant.

B23: pMON13410 polypeptide (ligand)
chain: MANCSIMIDEIIHHLKRPPNPLLDPNNLNSEDMDILDERNLRTPNLLAFVRAVKHLENASGIEAILRNLQPCLPSATAAPSRHPIIIKAGDWQEFREKLTFYLVTLEQAQEQQ
Consider B23, for which the “Relative Biological Activity” value was 0.4 EC50 (1-133)hIL-3 / EC50 mutant.

B24: pMON13451 polypeptide (ligand)
chain: MANCSIILDEAIHHLKIPPNPSLDSANLNSEDVSILMERNLRTPNLLAFVRAVKHLENASGIEPILRNLQPCLPSATAAPSRTPIIIKAGDWQEFREKLTFYLVTLEQAQEQQ
Consider B24, for which the “Relative Biological Activity” value was 0.1 EC50 (1-133)hIL-3 / EC50 mutant.

B25: pMON13425 polypeptide (ligand)
chain: MANCSIIIDEIIHHLKRPPNPLLDPNNLNSEDVDILLERNLRTPNLLAFVRAVKHLENASGIEAILRNLQPCLPSATAAPSRHPIIIKAGDWQEFREKLTFYLVTLEQAQEQQ
Regarding B25, the “Relative Biological Activity” value was 6 EC50 (1-133)hIL-3 / EC50 mutant.

B26: pMON13408 polypeptide (ligand)
chain: MANCSIMIDEIIHHLKRPPNPLLDPNNLNSEDMDILIERNLRTPNLLAFVRAVKHLENASGIEAILRNLQPCLPSATAAPSRHPIIIKAGDWQEFREKLTFYLVTLEQAQEQQ
In the case of B26, the “Relative Biological Activity” value is 7 EC50 (1-133)hIL-3 / EC50 mutant.

B27: pMON13440 polypeptide (ligand)
chain: MANCSIMIDEAIHHLKIPPNPSLDSANLNSEDVSILMERNLRTPNLLAFVRAVKHLENASGIEPILRNLQPCLPSATAAPSRTPIIIKAGDWQEFREKLTFYLVTLEQAQEQQ
For B27, the “Relative Biological Activity” value is 9 EC50 (1-133)hIL-3 / EC50 mutant.

B28: pMON13414 polypeptide (ligand)
chain: MANCSIIIDEIIHHLKRPPNPLLDPNNLNSEDMDILMERNLRTPNLLAFVRAVKHLENASGIEAILRNLQPCLPSATAAPSRHPIIIKAGDWQEFREKLTFYLVTLEQAQEQQ
In the case of B28, the “Relative Biological Activity” value was 4 EC50 (1-133)hIL-3 / EC50 mutant.

B29: pMON13423 polypeptide (ligand)
chain: MANCSIIIDEIIHHLKRPPNPLLDPNNLNSEDVDILIERNLRTPNLLAFVRAVKHLENASGIEAILRNLQPCLPSATAAPSRHPIIIKAGDWQEFREKLTFYLVTLEQAQEQQ
As to B29, the “Relative Biological Activity” value was 0.4 EC50 (1-133)hIL-3 / EC50 mutant.

B30: pMON13426 polypeptide (ligand)
chain: MANCSIAIDEIIHHLKRPPNPLLDPNNLNSEDVDILDERNLRTPNLLAFVRAVKHLENASGIEAILRNLQPCLPSATAAPSRHPIIIKAGDWQEFREKLTFYLVTLEQAQEQQ
Turning to B30, the “Relative Biological Activity” value is > 0.0003 EC50 (1-133)hIL-3 / EC50 mutant.

These data come from patent US6051217, “Therapeutic uses of interleukin-3 (IL-3) multiple mutation polypeptides” (G. D. Searle & Co., dated 2000).
